{"source": "paper PMC11238716", "about": "(ACS Medicinal Chemistry Letters, 2024)", "proteins": {"B1": {"name": "6 × HisMBP-SREBP-1a (1–198) (domain or fragment, human, UniProt P36956-1 1-198, looked up)", "chain": "MDEPPFSEAALEQALGEPCDLDAALLTDIEDMLQLINNQDSDFPGLFDPPYAGSGAGGTDPASPDTSSPGSLSPPPATLSSSLEAFLSGPQAAPSPLSPPQPAPTPLKMYPSMPAFSPGPGIKEESVPLSILQTPTPQPLPGALLPQSFPAPAPPQFSSTPVLGYPSPPGGFSTGSPPGNTQQPLPGLPLASPPGVPP"}}, "molecular_target": "the molecule itself", "assay": "SEC"}
{"protein": "B1", "values": [{"measurement": "binding result", "result": "binds"}]}
